± gives the standard deviation.
Experiment: protein stability index of a GFP-peptide fusion (GPS, HEK-293T) (PSI 1-6); higher = more stable
Conditions: c terminus: a fixed tail appended
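Note: 24-mer peptide tiles fused after GFP, lentivirally expressed, FACS-sorted into six equal bins by GFP/DsRed ratio, decoded by Illumina sequencing, PSI is the read-weighted mean bin number.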

Sequence | protein stability index (treatment: DMSO) | protein stability index (treatment: MLN4924 1 uM, 8 h)
IPAGARDIQIVERKKSADVLALAD [ADAMTSL2] | 4.68 ± 0.32 | 4.86 ± 0.38
SQIQGHKEMSKVWNDLRPKLSCLF [SNX8] | 2.2 ± 0.35 | 2.22 ± 0.22
LRDKTVMIIVAISPKYKQDVEGAE [TRAF3IP2] | 2.4 ± 0.047 | 2.97 ± 0.69
QRILRIMCRLEELGLAGRCLTLTP [HDAC6] | 2.39 ± 0.44 | 2.34 ± 0.39
EEVPEGMEEAAVASVVLPARELQE [BCL2L13] | 5.59 ± 0.2 | 5.41 ± 0.26
RDRDGRITVAELREAVPALLGEPL [CABP4] | 3.78 ± 0.23 | 3.95 ± 0.35
TMPLYLEDDIRPDIKDDIYDPTYK [SCD] | 4.46 ± 0.3 | 4.68 ± 0.17
EGHCVIQVDVGDVNDNAPEVLLAS [PCDHGC5] | 3.86 ± 0.35 | 3.96 ± 0.27
SEMKKCSDYESIEVPDSYTGPRLS [PPEF2] | 4.58 ± 0.35 | 4.53 ± 0.11
FARHIKKSEGQKIPKVELQISIYG [GULP1] | 2.06 ± 0.41 | 1.9 ± 0.26
DLINKMLTINPAKRITASEALKHP [CAMK2D] | 2.49 ± 0.31 | 2.64 ± 0.32
LKVAAESCKADVVELLLSHADCDR [FEM1B] | 3.16 ± 0.19 | 3.13 ± 0.36
SGPAASEHSHRSHHSLASSLRSHH [DVL3] | 3.92 ± 0.16 | 3.91 ± 0.33
TEGPSLLNQKGTAVETEGSGSRHP [SLC2A12] | 5.43 ± 0.21 | 5.36 ± 0.43
LYYYMTQTEELKYSIDQEFLKEYF [NLN] | 2.74 ± 0.85 | 2.39 ± 0.62
CTGITRLQRWCRAKHMGLEPPPEV [POLD4] | 2.49 ± 0.31 | 2.96 ± 0.31
TMARIRRVYVSGLMKGGADLFVEN [APMAP] | 2.2 ± 0.3 | 2.07 ± 0.25
HDHLTLSVSRPEGRSWPSAPDDSK [PDLIM4] | 5.15 ± 0.093 | 5.06 ± 0.072

Sequence | protein stability index (treatment: DMSO) | protein stability index (treatment: MLN4924 1 uM, 8 h)
PDLRSLFSRAGISEAQLTDAETSK [WAS] | 5.03 ± 0.28 | 5 ± 0.27
VEYEERESEFDIEDEDKSEPEQTG [RBBP5] | 5.64 ± 0.23 | 5.54 ± 0.32
GRFCGQQNPPVIKSSGRFLWIKFF [NETO1] | 2.1 ± 0.84 | 2.39 ± 1.1
IGLRLVLEYLYTANVTLSLDTVEE [KLHL14] | 2.96 ± 0.5 | 3.02 ± 0.47
EQQNQEYKILLDVKTRLEQEIATY [KRT17] | 3.44 ± 0.34 | 3.59 ± 0.56
EEFLSAMQSARGPTPSSPLPSVPV [PLEKHN1] | 4.15 ± 0.27 | 4.14 ± 0.19
GGGISCVLQDGCVFEKAGVSISVV [CPOX] | 2.23 ± 0.63 | 2.41 ± 0.48
KRRGPQRSVDVVVSSVFLLTLSIA [PHTF1] | 2.55 ± 0.32 | 2.33 ± 0.23
TPNSKYVKLNVGGSLHYTTLRTLT [KCTD13] | 2.23 ± 0.15 | 2.02 ± 0.25
IGNLVKILHGTRGELLLDVAWHPV [RBBP5] | 2.72 ± 0.41 | 2.65 ± 0.43
PDDRLTCSQLLESSYFDSFQEAQI [CDKL4] | 3.91 ± 0.43 | 4.08 ± 0.12
VISLLNEPNTFSPANVDASVMYRK [CDC34] | 2.92 ± 0.25 | 3.07 ± 0.21
GSLGPVPVLRFDALWQVLARDCFA [TRIM14] | 2.42 ± 0.83 | 2.89 ± 0.43
ATTIDNSRVILEIDNARLAADDFR [KRT15] | 3.7 ± 0.31 | 3.74 ± 0.3
LADPYRSLKAPGARGPGPEGGGGG [JUNB] | 4.63 ± 0.53 | 4.71 ± 0.47
VQELCKQLHAKIDAAEEEKYDMEV [TNNI2] | 4.81 ± 0.28 | 4.74 ± 0.1
YIQSRADTMQNIESTIVELGSIFQ [STX5] | 2.33 ± 0.2 | 2.62 ± 0.29
RLKKQLRAAQLQHSEKMAQYLEEE [CCDC6] | 4.06 ± 0.29 | 4.11 ± 0.26
